Test results from the supplement of paper PMC12042874.
± gives the uncertainty stated by the source.

Assay: amyloid nucleation score (Sup35N fusion, yeast selection) (log enrichment); library NNK2; higher = more nucleation; inactive = no reads after selection
In short: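 Output and input plasmid inserts were sequenced by Illumina after psi-negative yeast carrying Sup35N fused to peptides of 20 random codons had been induced 24 hours with 100 μM copper sulfate and grown 7 days at 30°C on medium lacking adenine and uracil. The nucleation score is the DiMSum log enrichment of output over input reads, centred on the mode score of non-aggregating sequences. Sequences with under 100 input reads were excluded.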

Substance	amyloid nucleation score
SGTMSLLKMLLEYKLLT	-0.678 ± 0.76
HIRFVDWNDTLIWVANGYI	0.049 ± 0.8
SSIDMSCQHHLVALIRGFKE	2.24 ± 0.2
LNIIMGSSDFCPESFYKFW	0.266 ± 1
CYISFWARRFDEYLSLLSFA	-0.343 ± 0.42
RPNAVVFLTDNNVRRSDCWV	-0.639 ± 0.28
LYYTCDIHTGRWWVLLVHGV	4.28 ± 0.11
YLYLRKASEFLKGRWWVKYK	inactive
FYQGLATILSSSLVPIHRHQ	inactive
TFMTAMVVWSVSLGYPLLRR	1.24 ± 0.23
ASITIHSFKMRTYTRAITRE	3.92 ± 0.064
TSLFVLVVGLGLCK	2.91 ± 0.19
SLLYRD	-0.817 ± 0.48
NDLSWVRLSYHGLVLLGDVM	0.193 ± 0.34
LVAKHSG	0.693 ± 0.27
LSVCLAKPTCDVSF	0.201 ± 0.33
GLPRMRSRYTYRGKYVCMCM	1.12 ± 0.36
MINYCREIQFRM	3.63 ± 0.12
VSWLDYHVSPSRCRGTLNPC	0.463 ± 0.38
MNWHTSYCLFDVRAKVAGNV	-0.393 ± 1.1
RQEINSYGNTPRRGGPRLRH	-0.093 ± 0.55

Substance	amyloid nucleation score
TVIRNLVICSFEYCRDMITR	8.195 ± 0.075
SWPPKAQLMAVARCSAREAD	-0.337 ± 1.1
YLIAELFQIVDACLWLSSWR	-0.328 ± 0.38
SVRAVRMWIMDRNAARRMSG	0.997 ± 0.17
NITKTRHFLSLNYYNVYAFS	5.05 ± 0.056
YSPSVVVDCRSGRDRNLRGY	-0.254 ± 0.55
ALGYSRLTEYGLDRMVQTAC	0.908 ± 0.52
TSYSTPRMGPLTPRLSSG	0.388 ± 0.25
SLKMRNRWGIDVVE	0.386 ± 0.23
RMNGRYNLCTATGLVSASWW	0.09 ± 0.4
DCIHCSRTNAADWMGYVFGY	4.82 ± 0.085
VSQARVLCFMNFGRFLTLNE	5.51 ± 0.09
VDIVFSPSTNQWFLFLNCLV	4.24 ± 0.038
TSVNSILRYFRSRAMLKQGS	1.11 ± 0.45
LCWEVRTLEFIGFTQSYGKG	-0.005 ± 0.33
RFHELCV	0.998 ± 0.74
YSNYTHRNSTLGFKQISRTS	0.063 ± 0.79
MHSLCRM	-1.24 ± 0.53
LCLELFKQSVQFGLC	0.325 ± 0.35
PEDLLGRWIIFSYVFTIYSI	inactive
FWGIMNSILTETLL	-1.53 ± 1.1

Substance	amyloid nucleation score
LLLILTL	0.21 ± 1
CHRAKTVVGNRVNRGDWDNP	-0.434 ± 0.76
DNNTIWD	0.94 ± 0.23
QTCLHMSIGWVSP	4.38 ± 0.082
VFSPFQFNFWWSFCVNFALV	4.367 ± 0.035
WFWNGLFNIRTVLDMHALCT	4.11 ± 0.088
GLDCIVSINRVQLTSAGLIE	0.382 ± 0.47
NISGV	-0.644 ± 0.76
GNLLLSVITDQL	4.69 ± 0.072
EGRVFTGEGRYECCSCFGLL	-0.752 ± 0.64
FGGIASMMFVEMRRGSINEM	3.51 ± 0.045
SSFIRGLTSKAG	1.05 ± 0.57
FSNLPGH	1.98 ± 0.15
WRYIAVNFSNAFNDLVDSCA	0.117 ± 0.79
WFFRVLCLCRTLWNHYSFF	0.054 ± 0.79
RLYWVGGATGRFD	2.02 ± 0.19
LINPCVRLWLCNCIFTFESA	7.872 ± 0.027
SEYVLLT	inactive
YNCGSLILNRISSGL	-2.21 ± 0.76
VDWFLYFCSPTFCHVL	8.741 ± 0.063
SSNLKYGKSIFGNSFLQSVF	-1.27 ± 0.62

Substance	amyloid nucleation score
GGMGHVFITCWGYVYIDYLV	7.207 ± 0.025
PIWFQFGVANTSGLNGVLTS	0.612 ± 0.34
YCCCVSMFVRTLIARDYNLN	8.154 ± 0.078
LSNWSPFYMLHQSISFCSRS	3.08 ± 0.051
TVFLIDTYTYDTVFNTSRCR	3.76 ± 0.041
MDSIHFV	-0.029 ± 0.41
SEYVCSCYFSGLLNKLRLVE	0.356 ± 0.43
CDMSHGTFFTIFCRLTNA	4.81 ± 0.11
LVGMSATYPTHNWFKVRTYF	-0.104 ± 0.76
YILSDIIFMGIWGV	4.1 ± 0.13
QHTKGHSPEWD	1.47 ± 0.28
QCVQRHALRVG	4.31 ± 0.12
DSTVRPMRGGECNAGVAGKE	0.794 ± 0.24
VSDNFTYVLVYESGTGFTVS	inactive
LCRNSSVFRCSGK	0.311 ± 0.17
VCDFIW	-1.48 ± 0.63
NGWLFFWFSIRITTSQVTSL	2.54 ± 0.098
LVCYV	0.611 ± 0.46
GHLRVFGVAKKLSTIMNLAR	-0.274 ± 0.45
QSPSL	-0.381 ± 0.79
LRQCKGLRVLLPTGWSYKCE	1.67 ± 0.58
